Experimental data published in paper PMC10908827, “Structural insight into an Arl1–ArfGEF complex involved in Golgi recruitment of a GRIP-domain golgin” (Nature Communications, 2024).
Values belong to the molecule of their own block, whether it stands above or below them.

B1: S. cerevisiae full-length Gea2 with an N-terminal 6xHis-tag (natural protein, UniProt P39993 1-1459, looked up)
chain: MSDREFVTVDPVTIIIKECINLSTAMRKYSKFTSQSGVAALLGGGSEIFSNQDDYLAHTFNNLNTNKHNDPFLSGFIQLRLMLNKLKNLDNIDSLTILQPFLLIVSTSSISGYITSLALDSLQKFFTLNIINESSQNYIGAHRATVNALTHCRFEGSQQLSDDSVLLKVVFLLRSIVDSPYGDLLSNSIIYDVLQTILSLACNNRRSEVLRNAAQSTMIAVTVKIFSKLKTIEPVNVNQIYINDESYTNDVLKADTIGTNVESKEEGSQEDPIGMKVNNEEAISEDDGIEEEHIHSEKSTNGAEQLDIVQKTTRSNSRIQAYADDNYGLPVVRQYLNLLLSLIAPENELKHSYSTRIFGLELIQTALEISGDRLQLYPRLFTLISDPIFKSILFIIQNTTKLSLLQATLQLFTTLVVILGNNLQLQIELTLTRIFSILLDDGTANNSSSENKNKPSIIKELLIEQISILWTRSPSFFTSTFINFDCNLDRADVSINFLKALTKLALPESALTTTESVPPICLEGLVSLVDDMFDHMKDIDREEFGRQKNEMEILKKRDRKTEFIECTNAFNEKPKKGIPMLIEKGFIASDSDKDIAEFLFNNNNRMNKKTIGLLLCHPDKVSLLNEYIRLFDFSGLRVDEAIRILLTKFRLPGESQQIERIIEAFSSAYCENQDYDPSKISDNAEDDISTVQPDADSVFILSYSIIMLNTDLHNPQVKEHMSFEDYSGNLKGCCNHKDFPFWYLDRIYCSIRDKEIVMPEEHHGNEKWFEDAWNNLISSTTVITEIKKDTQSVMDKLTPLELLNFDRAIFKQVGPSIVSTLFNIYVVASDDHISTRMITSLDKCSYISAFFDFKDLFNDILNSIAKGTTLINSSHDDELSTLAFEYGPMPLVQIKFEDTNTEIPVSTDAVRFGRSFKGQLNTVVFFRIIRRNKDPKIFSKELWLNIVNIILTLYEDLILSPDIFPDLQKRLKLSNLPKPSPEISINKSKESKGLLSTFASYLKGDEEPTEEEIKSSKKAMECIKSSNIAASVFGNESNITADLIKTLLDSAKTEKNADNSRYFEAELLFIIELTIALFLFCKEEKELGKFILQKVFQLSHTKGLTKRTVRRMLTYKILLISLCADQTEYLSKLINDELLKKGDIFTQKFFATNQGKEFLKRLFSLTESEFYRGFLLGNENFWKFLRKVTAMKEQSESIFEYLNESIKTDSNILTNENFMWVLGLLDEISSMGAVGNHWEIEYKKLTESGHKIDKENPYKKSIELSLKSIQLTSHLLEDNNDLRKNEIFAIIQALAHQCINPCKQISEFAVVTLEQTLINKIEIPTNEMESVEELIEGGLLPLLNSSETQEDQKILISSILTIISNVYLHYLKLGKTSNETFLKILSIFNKFVEDSDIEKKLQQLILDKKSIEKGNGSSSHGSAHEQTPESNDVEIEATAPIDDNTDDDNKPKLSDVEKD
notes: Gea2, S. cerevisiae, Arf guanine nucleotide exchange factor, 1459 residues, amplified from genomic DNA of BY4741, vector pMCSG21; Homodimer by mass photometry and cryo-EM; also called Gea2 dimer

How the values were obtained:
[1] = biological target: T1, ΔNT17 Q72L Arl1 in the Arl1–Gea2 complex (Saccharomyces cerevisiae, UniProt P38116, Q72L); assay: cryo-EM structure ([…] Å); format: binding; settings: 1 mM GTP, 1 mM MgCl2, 1 mM TCEP, HEPES pH 7.4, 4 °C; Arl1 nucleotide site; Gea2 bound
T1 construct: Arl1 lacking N-terminal 17 residues, Q72L, C-terminal 6xHis; full-length Gea2 (1459 residues, dimer), N-terminal 6xHis; both from E. coli NiCo21(DE3); two Arl1 on one Gea2 dimer; with ARF guanine-nucleotide exchange factor 2
T1 sequence (P38116 18-183 Q72L): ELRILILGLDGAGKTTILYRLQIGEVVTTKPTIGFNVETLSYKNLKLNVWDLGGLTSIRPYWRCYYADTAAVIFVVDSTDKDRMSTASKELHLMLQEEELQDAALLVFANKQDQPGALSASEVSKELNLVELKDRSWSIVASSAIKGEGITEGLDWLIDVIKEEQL
T1 sequence (P39993 1-1459 partner): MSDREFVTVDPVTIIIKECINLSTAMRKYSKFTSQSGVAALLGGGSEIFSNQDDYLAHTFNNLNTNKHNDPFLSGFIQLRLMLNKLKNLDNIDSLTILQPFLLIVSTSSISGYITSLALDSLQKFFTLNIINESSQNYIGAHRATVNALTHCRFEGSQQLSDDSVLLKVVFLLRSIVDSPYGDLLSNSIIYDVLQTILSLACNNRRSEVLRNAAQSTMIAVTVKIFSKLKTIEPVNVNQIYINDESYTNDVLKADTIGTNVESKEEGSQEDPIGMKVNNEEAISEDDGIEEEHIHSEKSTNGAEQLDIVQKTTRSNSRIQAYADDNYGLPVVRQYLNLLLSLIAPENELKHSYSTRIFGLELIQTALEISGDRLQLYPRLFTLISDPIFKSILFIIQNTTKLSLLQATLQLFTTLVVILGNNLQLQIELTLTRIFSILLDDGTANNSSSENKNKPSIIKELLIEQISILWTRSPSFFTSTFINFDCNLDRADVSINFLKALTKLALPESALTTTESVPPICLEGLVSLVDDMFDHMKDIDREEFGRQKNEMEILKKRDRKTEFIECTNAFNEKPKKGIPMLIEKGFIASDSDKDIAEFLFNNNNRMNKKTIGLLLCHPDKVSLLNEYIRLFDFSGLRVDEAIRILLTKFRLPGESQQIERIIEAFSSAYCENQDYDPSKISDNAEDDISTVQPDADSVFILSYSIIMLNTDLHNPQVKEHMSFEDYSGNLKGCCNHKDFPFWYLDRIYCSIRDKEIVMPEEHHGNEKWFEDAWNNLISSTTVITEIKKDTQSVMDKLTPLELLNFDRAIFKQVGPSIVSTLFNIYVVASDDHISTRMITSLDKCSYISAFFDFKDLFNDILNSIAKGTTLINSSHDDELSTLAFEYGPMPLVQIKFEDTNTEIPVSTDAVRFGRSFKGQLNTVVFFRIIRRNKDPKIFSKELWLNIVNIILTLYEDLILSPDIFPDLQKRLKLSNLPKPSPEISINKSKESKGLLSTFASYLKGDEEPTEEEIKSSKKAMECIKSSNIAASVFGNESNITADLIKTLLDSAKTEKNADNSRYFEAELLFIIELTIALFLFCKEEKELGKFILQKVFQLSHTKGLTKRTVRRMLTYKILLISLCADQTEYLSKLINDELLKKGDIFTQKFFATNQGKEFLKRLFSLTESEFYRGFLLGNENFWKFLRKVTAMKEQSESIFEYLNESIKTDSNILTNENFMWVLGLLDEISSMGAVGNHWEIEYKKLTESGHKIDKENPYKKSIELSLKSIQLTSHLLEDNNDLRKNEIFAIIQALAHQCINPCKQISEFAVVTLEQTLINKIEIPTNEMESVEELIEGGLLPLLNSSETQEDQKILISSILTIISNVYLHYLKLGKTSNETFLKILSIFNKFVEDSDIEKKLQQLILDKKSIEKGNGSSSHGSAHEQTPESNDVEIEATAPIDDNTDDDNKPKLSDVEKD

[2] = biological target: the molecule itself; assay: mass photometry; 44.2 nM Gea2, Refeyn TwoMP, calibrated with β-amylase and thyroglobulin
[3] = biological target: B1; assay: SEC; 0.74 μM Gea2 (monomer) with 10-fold molar excess of ΔNT17 Q72L Arl1, 20 mM HEPES pH 7.4, 150 mM NaCl, 1 mM MgCl2, 1 mM TCEP, 1 mM GTP, 4 °C overnight; Superose 6 Increase 10/300 GL; peak fractions on SDS-PAGE; settings: both partners purified

Molecule: Nc1nc2c(ncn2[C@@H]2O[C@H](COP(=O)(O)OP(=O)(O)OP(=O)(O)O)[C@@H](O)[C@H]2O)c(=O)[nH]1 [GTP]
cryo-EM structure (3.3 Å) [1]: far away from the γ-phosphate of the bound GTP in our structure

Molecule: B1
stoichiometry N [2]: 2

binding result [3]: binds
B2: N-terminal 17-residue truncated Q72L Arl1 with a C-terminal 6xHis-tag (natural protein, S. cerevisiae, UniProt P38116 18-183, looked up)
chain: ELRILILGLDGAGKTTILYRLQIGEVVTTKPTIGFNVETLSYKNLKLNVWDLGGLTSIRPYWRCYYADTAAVIFVVDSTDKDRMSTASKELHLMLQEEELQDAALLVFANKQDQPGALSASEVSKELNLVELKDRSWSIVASSAIKGEGITEGLDWLIDVIKEEQL
notes: Arl1, S. cerevisiae, the N-terminal 17 residues (amphipathic helix) removed, Q72L keeps it GTP-restricted; vector pMCSG28; mixed with Gea2 in buffer with 1 mM GTP; also called ΔNT17 Q72L Arl1; Arl1-GTP
